Measured values from US20090318342A1, “Compounds” (IMPERIAL INNOVATIONS LIMITED, priority 2005, published 2009).
Blank lines part the entries; values can stand above or below the molecule they belong to.

What was measured:
[1] = test system: monocyte-derived macrophages (MDM); test: TNFα release by monocyte-derived macrophages (ELISA); type: cell-based, human; conditions: for EC50: 10 ng/ml LPS, read-out: EC50 for inhibition of LPS stimulated TNFα release by MDM; for Effect on basal TNFα release by MDM: no LPS
Procedure: FIG. 9. The effect of TIMP-3 mutants on TNFα release by monocyte-derived-macrophages (MDM). […] Data is normalised to % LPS stimulation.
To address the efficacy of TMP-3 mutants on MDM, MDM from a healthy subject were cultured in the laboratory and stimulated with LPS. The effect of TIMP-3 mutants on MMP-9 activity and TNFα was measured.
This method was adapted from Dransfield et al., [7] and performed under sterile conditions. Blood was collected into EDTA (2% W/v). Dextran solution (6% w/v) was added to the whole blood in volumes of 10 ml per 20 ml blood and the final volume adjusted to 50 ml in Dulbecco's PBS. The samples were allowed to sediment at room temperature for 45 min. After sedimentation, the upper leukocyte rich layer was centrifuged at 400×g for 10 min, 4° C. and the supernatant discarded. The pellets containing the cells were resuspended in Dulbecco's PBS and centrifuged for a second time as before.
The gradient consisted of three separate concentrations of Percoll™. A ‘100% v/v’ Percoll™ solution was prepared from 90% v/v Percoll™ containing 10% v/v 10×PBS. The gradient was then prepared as follows: 4 ml 81% v/v Percoll was added to a 15 ml Falcon tube. This was overlaid by 4 ml 70% v/v Percoll. The cell pellet was resuspended in 3 ml of 55% v/v Percoll™ and then overlaid onto the pre-prepared gradient. The cells were centrifuged at 750×g for 20 min at 4° C. The peripheral blood mononuclear cells (PBMCs) were harvested from the 55%/70% interface (top layer) and the polymorphonuclear (PMN) cells remained at the 70%/81% interface (bottom layer). PBMCs were washed twice by centrifugation in sterile PBS.
PBMCs were washed in serum-containing separation buffer (sterile PBS, 0.5% w/v bovine serum albumin (BSA), 2 mM EDTA. The cells were diluted 1:100 in Kimura stain and counted using a haemocytometer. The cell pellet was resuspended with the following ratio of reagents from the monocyte isolation kit. 60 μl separation buffer, 20 μl Fc receptor (FcR) blocking reagent and 20 μl Hapten Conjugated Antibody cocktail were added to 10^7 cells and incubated at 6-12° C. for 5 min. The cells were washed twice (5 min, 4° C., 250×g) in separation buffer in a volume 10-20 times higher than the labelling volume. The cell pellet was resuspended in: 60 μl separation buffer, 20 μl FcR blocking reagent, 20 μl MACS anti-hapten microbeads and 5 μl CD15 microbeads (to remove any contaminating neutrophils) per 10^7 cells and incubated at 6-12° C. for 15 min. The cells were washed (5 min, 4° C., 250×g) and resuspended in 500 μl separation buffer. The magnetic column was prepared by washing with 3 ml separation buffer. […]
TNFα was measured using a commercially available ELISA kit and MMP-9 was measured using a Fluorokine kit.

[2] = test system: THP-1 cells; test: Inhibition of TNF-α shedding from THP-1 cells (ELISA); type: cell-based, human; conditions: 100 ng/ml PMA, 6 h, 50 to 500 nM
Procedure: FIG. 3. Effects of mutations in N-TIMP-3 on inhibition of cellular shedding of TNF-α. THP-1 cells (2.5×10^6/ml) growing in serum-free RPMI-1640 medium were stimulated with 100 ng/ml PMA for 20 min before adding various concentrations of N-TIMP-3 (wild-type and mutants). Cells were allowed to grow for another 6 hr and conditioned media were collected for the ELISA assays.
Inhibition of TNF-α shedding from THP-1 cells—All TIMP solutions were dialyzed against 20 mM Tris-HCl (pH 7.0), 150 mM NaCl and 20% glycerol before use. Human monocyte THP-1 cells cultured in RPMI-1640 medium supplemented with 5% fetal calf serum were harvested, extensively washed and reseeded into serum-free medium at 2.5×10^6 cells/ml. […] The amount of soluble TNF-α released into the medium was measured using sandwich enzyme-linked immunosorbent assay, as described by Engelberts et al. (30) with modifications. The released TNF-α was absorbed to microtiter plates coated with mouse monoclonal anti-human TNF-α antibody BD551220 (1:200 dilution), and the bound TNF-α was detected using biotinylated mouse monoclonal anti-human TNF-α: antibody BD554511 (1:500 dilution) and streptavidin conjugated with horse radish peroxidase, and 3,3′,5,5′-tetramethylbenzidine as peroxidase substrate (KPL, Guildford, UK). The plates were read at 450 nm with an ELX808 plate reader (BIO-TEK Instruments Inc). […]

[3] = biological target: T1, full-length collagenase 1 (MMP-1) (Homo sapiens, UniProt P03956); conditions: Table I; data taken from ref. 8; read-out: Ki(app) MMP-1; cited from earlier work
T1 construct: full-length collagenase 1 (MMP-1)
T1 sequence (P03956 100-469): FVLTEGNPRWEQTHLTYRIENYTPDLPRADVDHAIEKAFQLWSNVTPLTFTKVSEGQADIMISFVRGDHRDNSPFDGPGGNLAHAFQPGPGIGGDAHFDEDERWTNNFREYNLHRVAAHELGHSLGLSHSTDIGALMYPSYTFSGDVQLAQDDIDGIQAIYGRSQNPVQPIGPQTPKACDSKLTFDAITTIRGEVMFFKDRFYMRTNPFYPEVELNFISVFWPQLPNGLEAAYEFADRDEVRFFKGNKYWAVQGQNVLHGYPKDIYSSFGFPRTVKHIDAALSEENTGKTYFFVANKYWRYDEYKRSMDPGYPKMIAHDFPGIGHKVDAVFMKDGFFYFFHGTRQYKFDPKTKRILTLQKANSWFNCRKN

EC50 [1]: ~180 nM
B1: (-2A)N-TIMP-3: N-TIMP-3 mutant with two alanine residues on the N-terminal side of Cysteine1 of the TIMP-3 sequence (protein)
chain: AACTCSPSHPQDAFCNSDIVIRAKVVGKKLVKEGPFGTLVYTIKQMKMYRGFTKMPHVQYIHTEASESLCGLKLEVNKYQYLLTGRVYDGKMYTGLCNFVERWDQLTLSQRKGLNYRYHLGCN
Effect on basal TNFα release by MDM [1]: little effect

B2: -1A: N-TIMP-3 mutant with the addition of an N-terminal alanine extension (-1A) (protein)
chain: ACTCSPSHPQDAFCNSDIVIRAKVVGKKLVKEGPFGTLVYTIKQMKMYRGFTKMPHVQYIHTEASESLCGLKLEVNKYQYLLTGRVYDGKMYTGLCNFVERWDQLTLSQRKGLNYRYHLGCN
Inhibition of PMA-stimulated release of TNF-α [2]: only slightly reduced inhibitory activity

EC50 [1]: ~180 nM
B3: N-TIMP-3: N-terminal inhibitory domain of TIMP-3 (residues 1 to 121), C-terminally His-tagged, wild-type (protein)
chain: CTCSPSHPQDAFCNSDIVIRAKVVGKKLVKEGPFGTLVYTIKQMKMYRGFTKMPHVQYIHTEASESLCGLKLEVNKYQYLLTGRVYDGKMYTGLCNFVERWDQLTLSQRKGLNYRYHLGCN
Effect on basal TNFα release by MDM [1]: little effect
Ki [3]: 1.2 ± 0.5 nM
Inhibition of PMA-stimulated release of TNF-α [2]: effectively inhibited
